Source: publication PMC6220978, “Induced conformational changes activate the peptidoglycan synthase PBP1B” (Molecular Microbiology, 2018)
Substitutions are numbered along the chain they refer to.

How the values were obtained:
Assay in all cases: SPR; PBP1B versions immobilised to the chip surface; CpoB versions injected from either 3.9 nM to 2 μM or from 78 nM to 40 μM; apparent KD by non-linear regression, at least three independent experiments
Conditions in all cases: both partners purified
PBP1B I202F = target: T1, PBP1B I202F (E. coli, UniProt P02919 46-844, I202F)
T1 construct: PBP1B, E. coli, residues 46-844, made by mutagenesis of pDML924; Substitution first found in the suppressor screen of Markovski et al. 2016 (LpoB bypass); source: E. coli BL21(DE3), purified (membrane extract, HisTrap, thrombin, HiTrap SP ion exchange)
T1 sequence (looked up): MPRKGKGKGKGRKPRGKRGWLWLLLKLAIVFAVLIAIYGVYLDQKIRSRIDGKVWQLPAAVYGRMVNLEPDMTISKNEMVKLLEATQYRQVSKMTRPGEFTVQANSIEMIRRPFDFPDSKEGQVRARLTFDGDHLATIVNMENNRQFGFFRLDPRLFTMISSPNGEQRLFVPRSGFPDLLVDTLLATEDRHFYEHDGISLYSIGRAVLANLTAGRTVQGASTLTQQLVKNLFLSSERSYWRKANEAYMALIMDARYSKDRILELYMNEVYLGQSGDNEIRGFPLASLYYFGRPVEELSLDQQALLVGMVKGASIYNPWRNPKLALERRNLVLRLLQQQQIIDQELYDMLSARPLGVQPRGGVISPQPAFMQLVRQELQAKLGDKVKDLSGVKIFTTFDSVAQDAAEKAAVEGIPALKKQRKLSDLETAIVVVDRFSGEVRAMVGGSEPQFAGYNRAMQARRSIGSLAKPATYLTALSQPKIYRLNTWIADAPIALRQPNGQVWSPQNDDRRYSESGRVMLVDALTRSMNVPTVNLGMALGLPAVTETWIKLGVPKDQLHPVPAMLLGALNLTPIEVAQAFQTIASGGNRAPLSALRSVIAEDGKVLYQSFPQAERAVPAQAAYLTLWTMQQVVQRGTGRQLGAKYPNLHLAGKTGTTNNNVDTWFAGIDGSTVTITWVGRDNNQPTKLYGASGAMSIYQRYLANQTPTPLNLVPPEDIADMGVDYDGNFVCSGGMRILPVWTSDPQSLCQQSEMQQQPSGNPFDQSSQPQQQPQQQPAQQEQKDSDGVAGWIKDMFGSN

PBP1B N112G = target: T2, PBP1B N112G (E. coli, UniProt P02919 46-844, N112G)
T2 construct: PBP1B, E. coli, residues 46-844, made by mutagenesis of pDML924; source: E. coli BL21(DE3), purified (membrane extract, HisTrap, thrombin, HiTrap SP ion exchange)
T2 sequence (looked up): T1 sequence (looked up) with N67G, F157I

PBP1B D443A = target: T3, PBP1B D443A (E. coli, UniProt P02919 46-844, D443A)
T3 construct: PBP1B, E. coli, residues 46-844, made by mutagenesis of pDML924; source: E. coli BL21(DE3), purified (membrane extract, HisTrap, thrombin, HiTrap SP ion exchange)
T3 sequence (looked up): T1 sequence (looked up) with F157I, D398A

Kd (PBP1B I202F): > 2000 nM
Kd (PBP1B N112G): 89 nM
Kd (PBP1B D443A): 95 nM
B1: CpoB (full length) (natural protein, E. coli, UniProt P45955 27-263, looked up)
chain: QAPISSVGSGSVEDRVTQLERISNAHSQLLTQLQQQLSDNQSDIDSLRGQIQENQYQLNQVVERQKQILLQIDSLSSGGAAAQSTSGDQSGAAASTTPTADAGTANAGAPVKSGNANTDYNAAIALVQDKSRQDDAMVAFQNFIKNYPDSTYLPNANYWLGQLNYNKGKKDDAAYYFASVVKNYPKSPKAADAMFKVGVIMQDKGDTAKAKAVYQQVISKYPGTDGAKQAQKRLNAM
notes: CpoB, E. coli; The coiled-coil construct begins at residue 27, so the purified 'full length' protein may lack the signal peptide (surmise); source: E. coli BL21(DE3), purified (HisTrap, Superdex 200), as in Gray et al. 2015
